The record followed here is patent US7423021.

The target of one experiment is human thrombin (human) (UniProt P00734). Kind of experiment: cell-based or functional assay.
In turn, “N-acetyl-D-Tyr-L-Cha-D-Pro-D-Tyr-L-Arg amide (peptide)” displayed an inhibition of the amidase activity of thrombin at 1 µM peptide of 47%.

Take “N-acetyl-L-Trp-D-Cha-L-Aze-D-Tyr-L-Har amide (peptide)”: the inhibition of the amidase activity of thrombin at 250 nM peptide was 76%.

Substance “N-acetyl-L-Ala-D-Cha-L-Aze-D-Tyr-L-Har amide (peptide)” gave an inhibition of the amidase activity of thrombin at 250 nM peptide of 77%.

As to “N-acetyl-D-Gln-D-His-L-Cha-D-Pro-D-Tyr-L-Arg amide (peptide)”, the inhibition of the amidase activity of thrombin at 1 µM peptide was 59%.

As for “N-acetyl-L-Pnp-D-Cha-L-Aze-D-Tyr-L-Har amide (peptide)”, the inhibition of the amidase activity of thrombin at 250 nM peptide was determined as 72%.

On to “N-acetyl-L-Tyr-L-Cit-L-Cha-D-Pro-D-Tyr-L-Arg amide (peptide)”, for which the inhibition of the amidase activity of thrombin at 1 µM peptide was determined as 55%.

As to “N-acetyl-L-Dcp-D-Cha-L-Aze-D-Tyr-L-Har amide (peptide)”, the inhibition of the amidase activity of thrombin at 250 nM peptide stood at 75%.

In turn, “N-acetyl-L-Ser-L-Ala-L-Cha-D-Pro-D-Tyr-L-Arg amide (peptide)” returned an inhibition of the amidase activity of thrombin at 1 µM peptide of 47%.

Take “N-acetyl-L-Tea-D-Cha-L-Aze-D-Tyr-L-Har amide (peptide)”: the inhibition of the amidase activity of thrombin at 250 nM peptide is 74%.

Substance “N-acetyl-L-Ser-L-Arg-L-Cha-D-Pro-D-Tyr-L-Arg amide (peptide)” returned an inhibition of the amidase activity of thrombin at 1 µM peptide of 51%.

For “N-acetyl-L-Ppd-D-Cha-L-Aze-D-Tyr-L-Har amide (peptide)”, the inhibition of the amidase activity of thrombin at 250 nM peptide was 76%.

In turn, “N-acetyl-D-Val-D-His-L-Cha-D-Pro-D-Tyr-L-Arg amide (peptide)” returned an inhibition of the amidase activity of thrombin at 1 µM peptide of 51%.

The substance “N-acetyl-L-Nle-D-Cha-L-Aze-D-Tyr-L-Har amide (peptide)” had an inhibition of the amidase activity of thrombin at 250 nM peptide of 89%.

Regarding “N-acetyl-L-Phg-D-Cha-L-Aze-D-Tyr-L-Har amide (peptide)”, the inhibition of the amidase activity of thrombin at 250 nM peptide is 95%.

For “N-acetyl-L-Trp-L-Cha-D-Pro-D-Tyr-L-Arg amide (peptide)”, the inhibition of the amidase activity of thrombin at 1 µM peptide is 63%.

For the substance “N-acetyl-L-Nhm-D-Cha-L-Aze-D-Tyr-L-Har amide (peptide)”, the inhibition of the amidase activity of thrombin at 250 nM peptide worked out at 80%.

In turn, “N-acetyl-L-Cha-D-Cha-L-Aze-D-Tyr-L-Har amide (peptide)” gave an inhibition of the amidase activity of thrombin at 250 nM peptide of 90%.

In turn, “N-acetyl-L-Ile-L-Arg-L-Cha-D-Pro-D-Tyr-L-Arg amide (peptide)” showed an inhibition of the amidase activity of thrombin at 1 µM peptide of 61%.

“N-acetyl-D-Glu-L-Cha-D-Pro-D-Tyr-L-Arg amide (peptide)” showed an inhibition of the amidase activity of thrombin at 1 µM peptide of 58%.

Substance “N-acetyl-L-Arg-L-Cha-D-Pro-D-Tyr-L-Arg amide (peptide)” returned an inhibition of the amidase activity of thrombin at 1 µM peptide of 47%.

For “N-acetyl-D-Phe-D-Cha-L-Aze-D-Tyr-L-Har amide (peptide)”, the inhibition of the amidase activity of thrombin at 250 nM peptide was determined as 77%.

“N-acetyl-L-Tyr-D-Pro-L-Cha-D-Pro-D-Tyr-L-Arg amide (peptide)” displayed an inhibition of the amidase activity of thrombin at 1 µM peptide of 44%.

“N-acetyl-L-Ala-L-Cha-D-Pro-D-Tyr-L-Arg amide (peptide)” yielded an inhibition of the amidase activity of thrombin at 1 µM peptide of 44%.

In turn, “N-acetyl-D-Val-L-Cha-D-Pro-D-Tyr-L-Arg amide (peptide)” had an inhibition of the amidase activity of thrombin at 1 µM peptide of 45%.

As to “N-acetyl-L-Ala-D-Cha-L-Pro-D-Tyr-L-Har amide (peptide)”, the inhibition of the amidase activity of thrombin at 1 µM peptide amounted to 56%.

“N-acetyl-L-Iq3-D-Cha-L-Aze-D-Tyr-L-Har amide (peptide)” registered an inhibition of the amidase activity of thrombin at 250 nM peptide of 72%.

Consider “N-acetyl-L-Ala-D-Cha-L-Aze-D-Tyr-L-Arg amide (peptide)”, for which the inhibition of the amidase activity of thrombin at 1 µM peptide was determined as 63%.

In the case of “N-acetyl-D-Lys-L-Nle-L-Cha-D-Pro-D-Tyr-L-Arg amide (peptide)”, the inhibition of the amidase activity of thrombin at 1 µM peptide came out at 48%.

The substance “N-acetyl-L-Ser-L-Ser-L-Cha-D-Pro-D-Tyr-L-Arg amide (peptide)” showed an inhibition of the amidase activity of thrombin at 1 µM peptide of 40%.

Another experiment shares this target. Kind of experiment: competitive inhibition of human thrombin hydrolysis of the fluorogenic substrate Tos-Gly-Pro-Arg-AMC, Hanes analysis.
“Trans-4-(guanidinomethyl)cyclohexanecarboxylic acid-D-Cha-L-Aze-D-Try-L-Har amide (peptide)” showed a Ki of 3 nM.

The substance “Tranexamic acid-D-Cha-L-Aze-D-Try-L-Har amide (peptide)” came in with an inhibitory constant (Ki) of 7 nM.
